Sequences and labels used below:
B1: (ab): monoclonal antibody against CAPRIN-1 described in WO2013/125630, heavy-chain variable region SEQ ID NO: 114, light-chain variable region SEQ ID NO: 115 (antibody, listed as Mus musculus, V domains shown)
VH: GPELVKPGASVKMSCKASGYTFTSYVMHWVKQKPGQGLEWIGYINPYNDGTKYNEKFKGKATLTSDKSSSTAYMELSSLTSEDSAVYYCARRYYYGSSGGYFDVWAQDHVRT
VL: DVQITQSPSYLAASPGETITINCRASKSISKYLAWYQEKPGKTNKLLIYSGSTLQSGIPSRFSGSGSGTDFTLTISSLEPEDFAMYYCQQHNEYPYTFGGGTKLEIKR
B2: anti-CAPRIN-1 antibody (d) (antibody, V domains shown)
VH: QSLEESGGDLVKPGASLTLTCTASGFSFSGSYYMSWVRQAPGKGLEWIAYIYIGDGVTAYANWAKGRFTISKASSTTVTLQMTSLTAADTATYFCARGNKLWGPGTLVTVSS
VL: DVVMTQTPASVEAAVGGTVTIKCQASQSISSYLAWYQQKPGQPPKRLIYDASNLDSGVPSRFKGSGSGTDFTITISDLECADAATYYCQCTAVSSATIYGNAFGGGTEVVVK
B3: anti-CAPRIN-1 antibody (a) (antibody, V domains shown)
VH: AVTLDESGGGLQMSRGGLSLVCKASGFDFSSYQMNWIRQAPGKGLEFVAAINKFGNSTGHGAAVKGRVTISRDNGQSTVRLQLNNLRAEDTAIYFCTKHAYGYCGSGTWCAAGEIDAWGHGTEVIVSS
VL: QAASTQPSSVSANPGETVEITCSGGGSYSYGWFQQKSPGSAPVTVIYYNNKRPSDIPSRFSGSKSGSTGTLTITGVQADDEAVYYCGSGDSTDTAVFGAGTTLTVLG
B4: anti-CAPRIN-1 antibody (c) (antibody, V domains shown)
VH: AVTLDESGGGLQTPGGGLSLVCKASGFTFSSFDMGWVRQAPGKGLEFVAQINDAGSRTWYATAVKGRATISRDNGQTTVRLQLNNLRAEDTGTYYCTRGSGYVGAGAIDAWGHGTEVIVS
VL: AALTQPSSVSANPGETVKITCSGGSGYYGWYQQQKSPGSAPVTVIYQNDKRPSDIPSRFSGSGSGSTNTLTITGVQAEDEAVYFCGRYDSTDSGIFGAGTTLTVL
B5: anti-CAPRIN-1 antibody (o) (antibody, V domains shown)
VH: EVQLHQFGAELVKPGASVKISCKASGYTFTDYNMDWVKQSHGKSLEWIGDINPNYDSTSYNQKFKGKATLTVDKSSSTAYMELRSLTSEDTAVYYCARSRSYDYEGFAYWGQGTLVTVSA
VL: DIQMTQSPASLSASVGETVTITCRASGNIHNYLAWYQQKQGKSPQLLVYNAKTLADGVPSRFSGSGSGTQYSLKINSLQPEDFGSYYCQHFWSTLTFGAGTKLELKR
B6: anti-CAPRIN-1 antibody (i) (antibody, V domains shown)
VH: GAELVRSGASVKMSCKASGYSFTDYNMYWVKQTPGQGLEWIGYIYPGNGGTNYNQKFKGKATLTADTSSSTAYMQISSLTSEDSAVYFCARDYDDGGYAMDYWGQGTTVTVSS
VL: DIQMTQSPASLSASVGETVTITCRASGNIHNYLTWYQQKQGKSPQLLVYNAKTLADGVPSRFSGSGSGTQYSLKINRLQPEDFGSYYCQHFWNIPWTFGGGTKLNSR
B7: anti-CAPRIN-1 antibody (af) (antibody, V domains shown)
VH: EVQLVESGGGLVQPGGSLRLSCAASGFSLSSHSLGWVRQAPGKGLEWIGDIRSGGSAYYANWAKGRFTISRDNSKNTLYLQMNSLRAEDTAVYYCTRTNGPSDLTNRLDLWGQGTLVTVSS
VL: QVLTQSPSSLSASVGDRVTINCQASQSLYNNENLAWFQQKPGKVPKRLIYGASTLASGVSSRFSGSGSGTEFTLTISSLQCEDFAIYYCLGEFSCGSADCFAFGGGTKVEIK
B8: anti-CAPRIN-1 antibody (ah) (antibody, V domains shown)
VH: B7 VH
VL: EQVLTQSPSSLSASVGDRVTINCQASQSLYNNENLAWFQQKPGKVPKRLIYGASTLASGVSSRFSGSGSGTEFTLTISNLQPEDFAIYYCLGEFSCGSADCFAFGGGTKVEIK
B9: anti-CAPRIN-1 antibody (ai) (antibody, V domains shown)
VH: B7 VH with Y94F
VL: B8 VL with Q2I, I87T
B10: anti-CAPRIN-1 antibody (ak) (antibody, V domains shown)
VH: B7 VH with Y94F
VL: B8 VL
B11: anti-CAPRIN-1 antibody (b) (antibody, V domains shown)
VH: B7 VH with V2Q, Q3S
VL: B7 VL
B12: anti-CAPRIN-1 antibody (aj) (antibody, V domains shown)
VH: B7 VH
VL: B8 VL with Q2I, I87T
B13: anti-CAPRIN-1 antibody (ag) (antibody, V domains shown)
VH: B7 VH with Y94F
VL: B7 VL
B14: anti-CAPRIN-1 antibody (j) (antibody, V domains shown)
VH: DAELVKPGASVKISCKASGYTFTDHSIHWVQQKPEQGLEWIGYISPGNGNIKYNEKFKGKATLTADKSSSTAYMQLNSLTSEDSAVYFCKRSLGRGGPYYFDYWGQGTTVTVSS
VL: DIVLTQAAPSLPVTPGESVSISCRSSKSLLHSNGNTYLYWFLQRPGQSPQLLIYRMSNLASGVPDRFSGSGSGTAFTLRISRVEAEDVGVYYCMQHREYPVTFGSGPN
B15: anti-CAPRIN-1 antibody (e) (antibody, V domains shown)
VH: AVTLDESGGGLQTPGGALSLVCKASGFTFSGYDMLWVRQAPGKGLEWVAGIGSTGGGTDYGAAVKGRATISRDNGQSTVRLQLNNLRAEDTATYYCAKVAGGCNSGYCRDSPGSIDAWGHGTEVIVS
VL: AVTQQPASVSANPGETVKITCSGGGSRNYYGWYQQKSPGSVPVTVIYYDDQRPSNIPSRFSGALSGSTSTLTITGVQADDEAVYFCGSADSNTYEGSFGAGTTLTVL

Residue numbers refer to the chain shown, from its start.

The first assay has as its target T1, CAPRIN-1 on cell membrane surfaces of human cancer cells (Homo sapiens, UniProt Q14444).
T1 construct: endogenous in cells; host or cells: human cancer cell lines (BT-474, HT-29, QG56, H1650, NCI-N87, HEC-1-A, 22Rv1, Panc10.5, Hep3B, SKOV3, Caki-2, U-87MG, T24, OE33, OCI-AML5, Ramos, TGBC 14TKB, HT-1080, G-361)
T1 sequence (Q14444 1-709): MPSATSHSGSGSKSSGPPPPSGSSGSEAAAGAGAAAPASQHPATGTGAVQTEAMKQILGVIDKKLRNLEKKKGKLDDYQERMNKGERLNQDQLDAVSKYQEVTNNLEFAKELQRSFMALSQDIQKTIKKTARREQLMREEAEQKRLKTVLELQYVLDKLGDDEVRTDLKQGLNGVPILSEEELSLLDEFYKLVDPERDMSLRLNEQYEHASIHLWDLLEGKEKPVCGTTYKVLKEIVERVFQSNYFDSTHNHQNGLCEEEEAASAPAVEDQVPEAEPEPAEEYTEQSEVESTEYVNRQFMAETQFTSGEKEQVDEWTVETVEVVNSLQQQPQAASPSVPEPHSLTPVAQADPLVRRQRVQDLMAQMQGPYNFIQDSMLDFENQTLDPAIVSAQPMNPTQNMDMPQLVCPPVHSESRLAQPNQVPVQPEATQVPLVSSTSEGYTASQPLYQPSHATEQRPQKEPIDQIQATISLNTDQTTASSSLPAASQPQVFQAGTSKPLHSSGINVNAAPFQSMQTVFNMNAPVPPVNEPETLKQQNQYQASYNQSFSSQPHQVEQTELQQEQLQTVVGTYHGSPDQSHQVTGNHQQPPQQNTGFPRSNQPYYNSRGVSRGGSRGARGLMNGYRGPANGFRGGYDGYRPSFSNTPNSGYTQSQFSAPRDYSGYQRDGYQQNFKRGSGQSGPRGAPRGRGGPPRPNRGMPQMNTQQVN
Put plainly: Flow cytometry reactivity with cell membrane surfaces of human cancer cells expressing CAPRIN-1. In kind it is binding. The conditions noted are these: human cancer cells: BT-474, HT-29, QG56, H1650, NCI-N87, HEC-1-A, 22Rv1, Panc10.5, Hep3B, SKOV3, Caki-2, U-87MG, T24, OE33, OCI-AML5, Ramos, TGBC 14TKB, HT-1080, G-361. The text has this: Reactivity of each monoclonal antibody with human cancer cells confirmed to express CAPRIN-1 protein on cell membrane surfaces was further confirmed by flow cytometry.
The reactivity of the anti-CAPRIN-1 antibody with cancer cells without permeation treatment of cell membranes was examined by flow cytometry to confirm that a portion of CAPRIN-1 was expressed on cell membrane surfaces of cancer cells as shown by Examples given below.
For orientation: In flow cytometry, cells or beads pass a laser one at a time.
For B1, the “reactivity with cell membrane surfaces of cancer cells (fluorescence intensity versus negative control antibody)” value is listed as “reacted strongly”.

For another assay, the system named is Basal-like subtype of breast cancer (BLBC).
Assay: not given
The conditions noted are these: added to docetaxel after epirubicin and cyclophosphamide (EC treatment); cited from earlier work.
Consider `N.N.O=C([O-])C1(C(=O)[O-])CCC1.[Pt+2]` [carboplatin], for which the “effectiveness of administering carboplatin” value is on record as “not effective”.

A further assay has as its target T2, human CAPRIN-1 protein on cell membrane surfaces of human cancer cells (human, UniProt Q14444 2-709).
T2 construct: whole, on cells; Endogenous protein on cancer cells, stained without permeation of the cell membrane
T2 sequence (looked up): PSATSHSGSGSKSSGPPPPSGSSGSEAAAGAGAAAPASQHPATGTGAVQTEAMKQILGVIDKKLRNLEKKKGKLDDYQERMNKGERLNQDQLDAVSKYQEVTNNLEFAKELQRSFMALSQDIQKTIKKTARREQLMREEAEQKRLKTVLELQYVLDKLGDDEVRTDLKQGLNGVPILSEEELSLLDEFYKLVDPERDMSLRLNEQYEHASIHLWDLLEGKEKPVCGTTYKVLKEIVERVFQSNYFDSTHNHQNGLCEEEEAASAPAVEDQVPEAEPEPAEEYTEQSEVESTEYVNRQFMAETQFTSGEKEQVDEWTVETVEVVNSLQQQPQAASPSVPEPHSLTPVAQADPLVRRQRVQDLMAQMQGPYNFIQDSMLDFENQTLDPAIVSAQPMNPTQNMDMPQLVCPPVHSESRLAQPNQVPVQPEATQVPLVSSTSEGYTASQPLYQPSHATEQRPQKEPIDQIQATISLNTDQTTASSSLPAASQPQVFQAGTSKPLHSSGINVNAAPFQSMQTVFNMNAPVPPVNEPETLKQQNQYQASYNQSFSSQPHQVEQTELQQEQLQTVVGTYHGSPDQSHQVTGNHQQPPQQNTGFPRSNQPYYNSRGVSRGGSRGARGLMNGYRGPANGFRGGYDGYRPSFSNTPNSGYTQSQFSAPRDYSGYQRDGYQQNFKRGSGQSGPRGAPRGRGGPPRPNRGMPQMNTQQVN
The experiment in a line: flow cytometry on cancer cells expressing CAPRIN-1.
Conditions: not given
In the case of B2, the binding result is on record as “binds”.
Same read-out and setting: the entry for B3 is “binds”; for B4 it is “binds”.
Turning to B5, the binding result is “binds”.
With B6, the binding result was “binds”.
As to B7, the binding result is reported as “binds”.
With B8, the binding result is given as “binds”.
Consider B9, for which the binding result is recorded as “binds”.
Regarding B10, the binding result is “binds”.
In the case of B11, the binding result is “binds”.
Same read-out and setting: next, B12: “binds”; B13: “binds”.
The same measure, in the same setting: next, B14: “binds”; B15: “binds”.

These data come from US20240325529A1, “MEDICAMENT FOR TREATMENT AND/OR PREVENTION OF CANCER” (TORAY INDUSTRIES, INC., priority 2021, published 2024).
